Holding throughout (assay): EMSA; 2 ug nuclear extract or 1 ul ivt protein, 0.1 ng 32P ds oligo, 1 ug poly(dI-dC); antiserum preincubation 15 min at room temperature; buffer, salt and pH not given (by reference)
In general terms: In EMSA bound probe runs differently from free probe, usually more slowly.

Data set [1] addresses T1, PBX1a (long isoform);PREP1 (;, UniProt P41778;P55347 1-430;1-436, |).
T1 sequence 1: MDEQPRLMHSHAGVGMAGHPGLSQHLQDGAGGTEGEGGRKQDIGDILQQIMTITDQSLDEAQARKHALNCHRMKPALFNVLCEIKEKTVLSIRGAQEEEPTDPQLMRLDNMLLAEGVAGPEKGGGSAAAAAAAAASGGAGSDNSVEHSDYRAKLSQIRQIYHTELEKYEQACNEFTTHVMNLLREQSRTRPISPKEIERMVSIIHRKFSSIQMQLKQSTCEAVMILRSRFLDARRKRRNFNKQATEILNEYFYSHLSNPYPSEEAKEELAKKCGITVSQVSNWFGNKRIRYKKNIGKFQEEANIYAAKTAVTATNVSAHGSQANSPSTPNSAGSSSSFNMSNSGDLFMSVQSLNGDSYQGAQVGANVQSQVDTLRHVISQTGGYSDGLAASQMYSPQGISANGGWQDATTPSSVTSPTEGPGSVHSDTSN
T1 sequence 2: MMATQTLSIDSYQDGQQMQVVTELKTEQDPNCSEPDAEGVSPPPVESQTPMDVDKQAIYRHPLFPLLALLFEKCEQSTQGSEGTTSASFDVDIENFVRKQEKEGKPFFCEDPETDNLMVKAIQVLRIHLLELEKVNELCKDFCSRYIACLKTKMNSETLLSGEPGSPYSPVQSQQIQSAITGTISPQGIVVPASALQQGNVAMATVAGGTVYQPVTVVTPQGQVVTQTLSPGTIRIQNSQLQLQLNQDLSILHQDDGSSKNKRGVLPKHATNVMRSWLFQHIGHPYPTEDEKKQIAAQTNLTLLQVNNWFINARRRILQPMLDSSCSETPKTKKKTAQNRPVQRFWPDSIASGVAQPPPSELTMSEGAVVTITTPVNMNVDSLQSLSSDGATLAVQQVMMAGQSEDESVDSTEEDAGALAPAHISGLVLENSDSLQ
Conditions: protein: ivt;ivt; tags: ;; copies: 1;1; label: 32P (Klenow); only top strand given; 5' GATC end, Klenow labelled.

The target of data set [2] is PBX1a (long isoform);PREP1;PDX1 (STF-1) (;;, UniProt P41778;P55347;P52947 1-430;1-436;1-283, ||). Conditions: protein: ivt;ivt;recombinant; tags: ;;; copies: 1;1;1; label: 32P (Klenow); only top strand given; 5' GATC end, Klenow labelled.
For a further data set, the target named is PDX1 (STF-1) (UniProt P52947 1-283). Conditions: protein: recombinant; label: 32P (Klenow); only top strand given; 5' GATC end, Klenow labelled.
PDX1 (STF-1), sequence (P52947 whole entry): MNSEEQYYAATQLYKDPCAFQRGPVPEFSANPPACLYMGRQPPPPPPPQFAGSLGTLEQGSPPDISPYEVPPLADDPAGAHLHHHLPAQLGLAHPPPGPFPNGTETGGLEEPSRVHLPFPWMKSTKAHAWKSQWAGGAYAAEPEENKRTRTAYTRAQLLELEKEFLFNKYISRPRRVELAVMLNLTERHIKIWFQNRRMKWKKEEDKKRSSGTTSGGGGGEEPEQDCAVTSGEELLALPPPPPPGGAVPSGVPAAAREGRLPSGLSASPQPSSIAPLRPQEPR

PBX1a (long isoform);PREP1;PDX1 (STF-1), sequence (P52947 whole entry, canonical isoform, one chain of several): as the sequence (P52947 whole entry) above

B1: PA1b (dsDNA)
DNA 1: GATCGCATCACGATCAATCACAGCGCT
DNA 2: AGCGCTGTGATTGATCGTGATGCGATC
As to B1, the binding result in data set [1] and in data set [2] was “binds” each time.

B2: PC3b (dsDNA)
DNA 1: GATCTAGCTCTTAATTGTGGTT
DNA 2: AACCACAATTAAGAGCTAGATC
As to B2, in the data set with PDX1 (STF-1), the binding result is recorded as “binds”.

The values above are taken from publication PMC2409314, “Expression of zebrafish pax6b in pancreas is regulated by two enhancers containing highly conserved cis-elements bound by PDX1, PBX and PREP factors”.
